This test addresses T1, C1q (UniProt P02745 23-245; P02746 28-253; P02747 29-245, radioiodinated (Bolton & Hunter) in the assay of FIG. 2).
T1 construct: mature; Purified native C1q; also called native fluid-phase C1q; radioiodinated C1q
Description: solid-phase domain, radioiodinated C1q, low salt.
Description: Microtitre plates were coated with the N-, P-, C- and CUB-domains and with three controls, cC1qR, BSA and Thioredoxin, (8 mg/ml in 35 mM NaHCO3, 15 mM Na2CO3 pH 9.6) for 2 hr at 37° C. Non-specific interactions were blocked by incubation with 10 mM potassium phosphate, 0.5 mM EDTA pH 7.4 containing BSA (10 mg/ml). Any free —SH groups in the samples, due to the presence of the thioredoxin fusion protein, were blocked by a brief washing step using the phosphate buffer containing 2 mM iodoacetamide. […] Wells were washed three times with phosphate buffer and bound radioactivity eluted with 100 ml 4M NaOH and measured.

T1 sequence (P02745 23-245, chain 1 of 3): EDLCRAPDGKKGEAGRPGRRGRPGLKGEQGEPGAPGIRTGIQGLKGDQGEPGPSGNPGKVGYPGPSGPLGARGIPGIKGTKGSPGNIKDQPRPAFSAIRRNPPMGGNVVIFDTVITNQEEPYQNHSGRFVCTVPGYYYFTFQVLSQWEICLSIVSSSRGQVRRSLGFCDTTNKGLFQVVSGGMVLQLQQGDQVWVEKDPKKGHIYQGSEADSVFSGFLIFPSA
T1 sequence (P02746 28-253, chain 2 of 3): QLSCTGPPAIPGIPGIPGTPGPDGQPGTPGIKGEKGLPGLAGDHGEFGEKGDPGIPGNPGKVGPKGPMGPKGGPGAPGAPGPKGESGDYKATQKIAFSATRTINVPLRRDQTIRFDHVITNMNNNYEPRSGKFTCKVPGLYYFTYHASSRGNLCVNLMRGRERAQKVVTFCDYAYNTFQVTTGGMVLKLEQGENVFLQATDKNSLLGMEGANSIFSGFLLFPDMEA
T1 sequence (P02747 29-245, chain 3 of 3): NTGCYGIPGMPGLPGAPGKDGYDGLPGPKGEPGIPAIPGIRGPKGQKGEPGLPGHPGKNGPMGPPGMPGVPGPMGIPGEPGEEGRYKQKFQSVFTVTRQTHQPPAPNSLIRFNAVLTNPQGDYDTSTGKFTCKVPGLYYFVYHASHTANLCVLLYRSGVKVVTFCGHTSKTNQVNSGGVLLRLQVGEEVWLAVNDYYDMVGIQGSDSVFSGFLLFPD

B1: recombinant C-domain of human cC1qR/CRT, thioredoxin fusion protein (other)
chain: DNFGVLGLDLWQVKSGTIFDNFLITNDEAYAEEFGNETWGVTKAAEKQMKDKQDEEQRLKEEEEDKKRKEEEEAEDKEDDEDKDEDEEDEEDKEEDEEEDVPGQAKDEL
notes: not shown: thioredoxin fusion partner from plasmid pTrxfus (Invitrogen), expressed in E. coli
With B1, the binding result is “no binding”.

The record behind these values is patent publication US20040259787A1 (published 2004).
